This data set is described as follows: yeast display, Sf9 membrane polyspecificity reagent, FACS + sequencing; frameworks hold sequencing errors. The method, boiled down: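 Using colony PCR, genes from sorted yeast display clones were amplified, then sequenced on MiSeq at 2 × 250 and filtered by CDR length. The clones had been stained with 10% biotinylated, detergent-solubilized Sf9 membrane reagent for 1 hour at 4 °C and sorted by FACS into low and high (top ~1%) gates on anti-HA and streptavidin fluorescence. Polyreactivity labels come from the gate of origin.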
For “QVQLVESGGGLVQAGGSLRLSCAASGSIFGANAMGWYRQAPGKERELVAAISSNGDDTYADSVMGRFTISRDNAKNTVYLQMNSLKPEDTAVYYCAARAERVREYNYWGQGTQVTVSS”, the “polyreactivity (PSR sort gate)” value is on record as “low polyreactivity”.

Turning to “QVQLVESGGGLVQAGGSLRLCCAASGRTFPYYALGWYRQAPGKESELVAGITSNAGSTYYADSVKGRFSISRDNAKNTVYLHRHRLKAEDTAVYYCAKYGRATRGLDNYWGQGTQVTVSS”, the “polyreactivity (PSR sort gate)” value is listed as “high polyreactivity”.

Take “QVQLVESGGGLVQAGGSLRLSCAASGRIFTIYAMGWYRQAPGKERELVAAISDRGTRTYYADSVKGRFTISRDNAKNTVYLQMNSLKPEDSEVYYCATDALYTYGYDYWGQGTQVTVSS”: the “polyreactivity (PSR sort gate)” value is reported as “low polyreactivity”.

“QVQLVESGGGLVQAGGSLRLSCAASGRIFPGYAMGWYRQAPGKERELVAGISNDASTNYADSVKGRFTISRDNAKNTVYLQMNSLKPEDTAVFYCAAEISYLSVPRYDYWGQGTQVTVSS”: the “polyreactivity (PSR sort gate)” value was “low polyreactivity”.

Regarding “QVQLVESGGGLVQAGGSLRLSCAASGFTIWRYAMGWYRQAPWKARELVAAISRGGSTNYADSVKGRFTISRDNAKNTVYLQMNSLKPEDTAVYYCAASVQYRRLKKFYYWGQGTQVTVSS”, the “polyreactivity (PSR sort gate)” value is “high polyreactivity”.

As to “QVQLVESGGGLVQAGGSLRLSCSASGSTFSRYAMGWYRQAPGKEREFVAAISQRGGSTYYADSVKGRFTISRDNAKNTVYLQMNSLKPEDTAVYYCAARRVPQLDDYWGQGTQVTVSS”, the “polyreactivity (PSR sort gate)” value is on record as “high polyreactivity”.

“QVQLVESGGGLVQAGGSLRLSCAASGIIFIYYGMGWYRQAPGKERELVAAIARSGGRTYYADSVKGRFTISRHNAKNTVYLQMHSLKPEETAVYYCATTYTPTGFDYWGQGPQVTVSS”: the “polyreactivity (PSR sort gate)” value is recorded as “high polyreactivity”.

As to “QVQLVESGGGLVQAGGCLRLSCAASGFIFDSNAMGWYRQAPGKERELVAAISRRGGSTYYADSVKGRFTISRDNAKNTVYVHMNSLKPEYTSVYYCNAEYGSHVKYGYWGQGTQVTVSS”, the “polyreactivity (PSR sort gate)” value is “high polyreactivity”.

Turning to “QVQLVESGGGLVQAGGSLRLSCAASGRTFGWYAMGWYRQAPGKERELVASITQRGGRTYYADSVKGRFTISRDNAKNTVYLQMNSLIPEDTAVYYCAARGATVSSRIYGYWGQGTQVTVSS”, the “polyreactivity (PSR sort gate)” value is “high polyreactivity”.

Turning to “QVQLVESGGGLVQAGGSLRLSRAASGRTFYGYAMGWYRQAPGKESELVARIRSGGSTNYADSVKGRFTISRDNAKNTFYLQMNSLIPEDTAVYYCAARPGAAGYKYYYWGQGTQVTVSS”, the “polyreactivity (PSR sort gate)” value was “high polyreactivity”.

For “QVQLVESGGGLVQAGGSLRLSCAASGFIFSQYAMGWYRQAPGTERELVAVISKSSGSTYYADSVKGRFTISCDNAKNTVYLQMNSLKPEDTAVYYCNRRYYYRTYDYWGQGTQVTVSS”, the “polyreactivity (PSR sort gate)” value is reported as “high polyreactivity”.

As for “QVQLVESGGGLVQAGGSLRLSCAASGSIFAYNAMGWYRQAPGKERELVAANSYSGASTYYADSVKGRFTISRDNAKNTVYLQMNSLKPEDTEVYYCAATSRRRGTKGYWQVWPRFDYWGQGTQVTVSS”, the “polyreactivity (PSR sort gate)” value is “high polyreactivity”.

As for “QVQLVESGGGLVQAGGSLRLSCAASGYIFKYYAMGWYRQAPGKERELVATINYSGGGTYYADSVKGRFTISRDNAKNTVYLQMNRLKPEDTAVYYCAAREKYISYSYYYWGQCTQVTVSS”, the “polyreactivity (PSR sort gate)” value is listed as “high polyreactivity”.

With “QVQIVESGGGLVKAGGSLRLSCAASGSTFERYAMGWYRQAPGKERELVAAINWSGGGTYYADSVKGRFTISRDNAKNTVYLQMNSLKPEDTAVYYCAADSGTVVFSLWWYEYYYWGQGTQVTVSS”, the “polyreactivity (PSR sort gate)” value is reported as “low polyreactivity”.

“QVQLVESGGGLVQAGGSLRLSCAASGYIFYNAMGWYRQAPGKERELVASISRRSGSTYYADSVKGRFTISRDNAKNTVYLQMNSLKPEDTAVYYCAADRPPWETYGYDYWGQGTQVTVSS”: the “polyreactivity (PSR sort gate)” value is reported as “low polyreactivity”.

For “QVQLVESGGGLVQAGRSLRLSCAASGRIFGWYAMGWYRQAPGKERELVAAIRWSGGSTYADSVKGRFTISRDNAKNTVYLQMNSLKPEDTAVYYCAALQRTGPYAGSSGYWGQGTQVTVSS”, the “polyreactivity (PSR sort gate)” value is recorded as “high polyreactivity”.

As for “QVQLVESGGGLVQAGGSLRLSCAASGRTLSRYTMGWYRQAPGKERELVAAISTSGSTYYADSVKGRFTISRDNAKNTVYLQMNSLKPEDTAVYYCNAVRRYLQYATGYDYWGQGTQVTVSS”, the “polyreactivity (PSR sort gate)” value was “high polyreactivity”.

“QVQLVESGGGLVQAGGSLRLSCAASGFIFAVYGMGWYTQAPGKQRELVAAISTGDSTKYADSVKGRFTISRDNAKNTVYLQMNSLNPEDTAVYYCAADGPYEGYDYWGQGTQVTVSS”: the “polyreactivity (PSR sort gate)” value is listed as “high polyreactivity”.

As for “QVQLVESGGGLVQAGGILRLSCAASGNAMGWYRQAPGKERELVATINRSGGRTYYADSVKGRFTISRDNAKNTVYLQMNSLKPEDTAVYYCATEGRWPNASYGDYDYWGQGTQVSVSS”, the “polyreactivity (PSR sort gate)” value is given as “low polyreactivity”.

Regarding “QVQLVESGGGLVQAGGSLRLSCAASGIILGAYDMGLYRQAPGKERELVAAINRNGDRTYYADSVKGRFTISRDNAKNTVYLQMKSLKPEDTAVYFCAAPRVVRTFDYWGQGTQVTVSS”, the “polyreactivity (PSR sort gate)” value is reported as “high polyreactivity”.

For the sequence “QVQLVESGGGLVQAGGSLRLSCAASGSTFATYTMGWYRQAPGKERELVAAISSRGGSTYYADSVKGRFTISRDNAKNTGYLQMNSLKPEDTAVYYCNARRSTDPARYYWGQGSQVTVSS”, the “polyreactivity (PSR sort gate)” value was “high polyreactivity”.

Consider “QVQLVESGGGLVQAGGSLRLSCAASGFIFYGNAMGWYRQAPGKERELVATISDGGSTNYADSVKGRFTISRDNAKNTVYFQMNSLKPEDTAVYYCATEYYTPVRGYGYWGQGTQVTVSS”, for which the “polyreactivity (PSR sort gate)” value is recorded as “low polyreactivity”.

As for “QVQLVESGGGLVQAGGSLRLSCAASGFTFWYYAMGWYRQAPGKERELVAAISWSGGSTSYADSVKGRFTISRDNAKNTVYLQMNSLKREDTAVYYCAASDYYYYSWRPGDTWYEYWGQGTQVSVSS”, the “polyreactivity (PSR sort gate)” value is “high polyreactivity”.

For the sequence “QVQLVESGGGLVQAGGSLRLSCAASGRTFLVNAMGWYRQAPGKERELVAVITRGGSTNYADSVKGRFTISRDNAKNTVYLQMNSLKPEDTAVYYCAAEAYYGLWMDYWGQGTQVTVSS”, the “polyreactivity (PSR sort gate)” value was “low polyreactivity”.

Turning to “QVQHVESVGGLVQAGGTLRLSCSASGQIFEPYAMGWYRQAPGKERELVAAINSGGSTNYADSVKGRFTISRDNAKNTVYLQMNSLKPEDTAVYYCNKGQNIRQSPGDYWGLGTQVTVSS”, the “polyreactivity (PSR sort gate)” value is reported as “low polyreactivity”.

Turning to “QVQLVESGGGLVQAGGSLRLSCAASGSTFFRYAMGWYRQAPGKERELVAAISKSGASTYYADSVKGRFTISRDNAKNTVYLQMNSLKPEDTAVYYCNADVKKSSAREWQYGYDYWGQGTQVTVSS”, the “polyreactivity (PSR sort gate)” value is on record as “low polyreactivity”.

Take “QVQLVESGGGLVQAGGSLRLSCASSGGISYYYYAMGWYRQAPGKERELVAAISSDDDTYYADSVKGRFTISRDNAKNTVYLQMNSLKPEDTAVYYCAAEYDVVGPSIYGYLFYYWGQGTQVTVSS”: the “polyreactivity (PSR sort gate)” value is “high polyreactivity”.

Take “QVQLVESGGGLVQAGGRLRLSCAAAGSIFSYTMGWYRQAPWKERELVAAIRRRGGSTYYADSVKGRFTISRDNAKNTVYLQMTSLKPEDTAVYYCAADGYQYRHRRFFYWGQGTQVTVSS”: the “polyreactivity (PSR sort gate)” value is “high polyreactivity”.

For “QVQLVESGGGLVQAGGSLRLSCAASGRISSNVMGWYRQAPGKERELVAAISVSGARTYYADSVKGRFTISRDNAKNTVYLQMNSLKPEDTAVYDCAAVYGGVYYGGDYWGQGTQVTVSS”, the “polyreactivity (PSR sort gate)” value is “high polyreactivity”.

“QVQLVESGGGLVQAGGSLRLSCAASGRIFHSYTMGWYRQAPGKERELVAAINWSGTRTYYADSVKGRFTISRDNAKNTVYLQMNSLKPEDTAVYYCNRVGVTRSYRYDYWGQGTQVTVSS”: the “polyreactivity (PSR sort gate)” value was “high polyreactivity”.

(Values after the nanobody polyreactivity screen of Harvey et al. (2022).)
